Source: patent US8722622B2, “FGF21 conjugates and anti-diabetic uses thereof” (COVX Technologies Ireland, Limited, priority 2010, dated 2014)
Where a chain is given by its changes, count along the chain named. In names and notes the source's numbering stands. Several values for one entry are separate records, joined by “and”; a condition that tells them apart may be missing. Equal values may be shown once. Read-outs that look alike come from different tables or passages of the source.

Columns and labels:
[1] = system: Differentiated 3T3-L1 adipocytes; assay: Glucose uptake assay; format: cell-based
Protocol: Differentiated 3T3-L1 adipocytes were treated with compounds in the absence of serum for 24 hrs. Cells were then incubated with ^14C-2-deoxyglucose for 1 hr and glucose uptake into the cells was quantitated in Wallac 1450 MicroBeta (Trilux) instrument. Glucose uptake was expressed in counts per min (CPM). EC50 values as measurements of the potency of the compounds were obtained from the dose response curves in the assay.

[2] = system: Glut1 mRNA expression in differentiated 3T3-L1 adipocytes; assay: Glut1 Taqman assay; format: cell-based; conditions: 6 hrs
Protocol: Differentiated 3T3-L1 adipocytes were used to measure the Glut1 mRNA expression by qPCR method. Overnight serum starved day 10-14 differentiated 3T3-L1 adipocytes were treated with compounds for 6 hrs. Total RNA was extracted from these cells, and Glut1 and GAPDH mRNA expression was measured using a Quantitect Probe RT-PCR kit and running a quantitative real time PCR reaction in a Taqman machine (Applied Biosystems®). The bioactivity of the compounds was determined by a fold change in Glut1 mRNA levels normalized by the GAPDH mRNA levels from each sample. EC50 values as measurements of the potency of the compounds were obtained from the dose response curves in the assay.
3T3-L1 adipocytes were seeded at day 8 in 24-well tissue culture plates (Falcon®, Cat#353047), and incubated in DMEM complete medium (10% FBS, 2 mM L-glutamine, 1% P/S) at 37° C., 5% CO2. […] The medium was aspirated, and then RNA extracted from the cells using the RNeasy mini Kit according to the manufacturer's instructions. RNA was measured at A260 nm using the Spectramax® Plus spectrophotometer.

[3] = Stability of linkers L1-L4 conjugated to FGF21 (LC-MS); format: physicochemical; conditions: +4° C.
Protocol: The following experiment was performed to investigate the chemical stability over 2 weeks of the four linkers upon conjugation to FGF21: each linker was conjugated to FGF21, placed at +4° C. storage conditions, and aliquots were removed and quenched by freezing at specific time points, and linker stability was monitored by LCMS analysis.
The four linkers were dissolved in DMSO from lyophilized stock material. […] L1 was reacted with protein for 30 mins; L2, L3 and L4 were reacted for 2 hrs. The conjugation reaction was quenched by removal of excess linkers through size-exclusion resin. Conjugated FGF21ΔH-A129C protein was placed at +4° C. for stability storage. […] Analysis of linker stability was performed by LC-MS analysis to determine the relative amount of unconjugated protein, protein+linker conjugation, and single and double hydrolysis events of the conjugated protein+linker.
Linker hydrolysis is the critical analytical variable in this experiment. Hydrolysis was monitored by observing the subsequent addition of H2O to the FGF21-linker complex. A single addition of H2O, +(1) H2O, likely indicates the hydrolysis of the active AZD group that is present on all 4 linkers. The addition of a second H2O molecule, +(2) H2O, is a strong indicator of hydrolysis (eg—chemical instability) in the linker. L1 is particularly susceptible because of the presence of a maleimide functional group.

[4] = design: species or system Swiss-Webster mice; conditions: mouse, in vivo
Protocol: The PK of FGF21 antibody conjugates were examined in mice after IV or SC administration. […] Antibody conjugates concentrations in serum were determined using an ELISA which captured the FGF21 portion of the antibody conjugates through a monoclonal anti-hFGF21 antibody bound to a 96-well plate. FGF21 antibody conjugates bound to the plate were detected through an anti-hFc monoclonal antibody, and concentrations were determined using a standard curve of the PK dosing solution diluted into serum-containing assay buffer. SC bioavailability was calculated as the ratio of the area-under the curve (AUC) of the SC serum concentration profile divided by the AUC of the IV serum concentration profile.

[5] = differentiated 3T3-L1 adipocytes, read-out: EC50 in Glut1 Taqman assay
[6] = 0 hrs, % of total measured protein

B1: FGF21ΔH-K56-K59R-K69R-K122R: FGF21 lysine mutant, SEQ ID NO:18 (protein, listed as Homo sapiens)
chain: PIPDSSPLLQFGGQVRQRYLYTDDAQQTEAHLEIREDGTVGGAADQSPESLLQLKALRPGVIQILGVRTSRFLCQRPDGALYGSLHFDPEACSFRELLLEDGYNVYQSEAHGLPLHLPGNRSPHRDPAPRGPARFLPLPGLPPAPLEPPGILAPQPPDVGSSDPLSMVGPSQGRSPSYAS
EC50 ([1]; 3T3-L1 adipocytes, 24 hrs): 5.5 nM
EC50 [2, 5]: 0.9 nM

B2: FGF21ΔH-Knull-S181K: FGF21 lysine-null mutant with S181K, SEQ ID NO:24 (protein, listed as Homo sapiens)
chain: B1 chain with K55R, S180K
EC50 [2, 5]: 7.5 nM

B3: L1-FGF21ΔH-A129C: Linker-1 conjugated to FGF21ΔH-A129C protein (Table 4; Table 5 row L1) (conjugate, UniProt Q9NSA1 29-209, looked up, variant H1* A129C)
Fibroblast growth factor 21: B1 chain with R58K, R68K, R121K, A128C, P145L, L146P
modifications: Linker-1 attached
1 linker (protein+linker) ([3]; 0 hrs): 49%
+(1) H2O ([3]; 0 hrs): 30%
+(2) H2O ([3]; 0 hrs): 8%
0 linker (unconjugated protein) [3, 6]: 13%
0 linker (unconjugated protein) ([3]; 24 hrs): 14%
1 linker (protein+linker) ([3]; 24 hrs): 41%
+(1) H2O ([3]; 24 hrs): 34%
+(2) H2O ([3]; 24 hrs): 11%
0 linker (unconjugated protein) ([3]; 72 hrs): 14%
1 linker (protein+linker) ([3]; 72 hrs): 40%
+(1) H2O ([3]; 72 hrs): 35%
+(2) H2O ([3]; 72 hrs): 11%
0 linker (unconjugated protein) ([3]; 168 hrs): 10%
1 linker (protein+linker) ([3]; 168 hrs): 33%
+(1) H2O ([3]; 168 hrs): 40%
+(2) H2O ([3]; 168 hrs): 18%
0 linker (unconjugated protein) ([3]; 336 hrs): 12%
1 linker (protein+linker) ([3]; 336 hrs): 28%
+(1) H2O ([3]; 336 hrs): 41%
+(2) H2O ([3]; 336 hrs (2 weeks)): 18%

B4: L2-FGF21ΔH-A129C: Linker-2 conjugated to FGF21ΔH-A129C protein (Table 4; Table 5 row L2) (conjugate, UniProt Q9NSA1 29-209, looked up, variant H1* A129C)
Fibroblast growth factor 21: B1 chain with R58K, R68K, R121K, A128C, P145L, L146P
modifications: Linker-2 attached
1 linker (protein+linker) ([3]; 0 hrs): 45%
+(1) H2O ([3]; 0 hrs): 27%
+(2) H2O ([3]; 0 hrs): 6%
0 linker (unconjugated protein) [3, 6]: 22%
0 linker (unconjugated protein) ([3]; 24 hrs): 23%
1 linker (protein+linker) ([3]; 24 hrs): 43%
+(1) H2O ([3]; 24 hrs): 26%
+(2) H2O ([3]; 24 hrs): 8%
0 linker (unconjugated protein) ([3]; 72 hrs): 24%
1 linker (protein+linker) ([3]; 72 hrs): 37%
+(1) H2O ([3]; 72 hrs): 32%
+(2) H2O ([3]; 72 hrs): 8%
0 linker (unconjugated protein) ([3]; 168 hrs): 24%
1 linker (protein+linker) ([3]; 168 hrs): 40%
+(1) H2O ([3]; 168 hrs): 29%
+(2) H2O ([3]; 168 hrs): 7%
0 linker (unconjugated protein) ([3]; 336 hrs): 26%
1 linker (protein+linker) ([3]; 336 hrs): 38%
+(1) H2O ([3]; 336 hrs): 28%
+(2) H2O ([3]; 336 hrs (2 weeks)): 8%

B5: L3-FGF21ΔH-A129C: Linker-3 conjugated to FGF21ΔH-A129C protein (Table 4; Table 5 row L3) (conjugate, UniProt Q9NSA1 29-209, looked up, variant H1* A129C)
Fibroblast growth factor 21: B1 chain with R58K, R68K, R121K, A128C, P145L, L146P
modifications: Linker-3 attached
1 linker (protein+linker) ([3]; 0 hrs): 45%
+(1) H2O ([3]; 0 hrs): 30%
+(2) H2O ([3]; 0 hrs): 6%
0 linker (unconjugated protein) [3, 6]: 19%
0 linker (unconjugated protein) ([3]; 24 hrs): 18%
1 linker (protein+linker) ([3]; 24 hrs): 47%
+(1) H2O ([3]; 24 hrs): 27%
+(2) H2O ([3]; 24 hrs): 8%
0 linker (unconjugated protein) ([3]; 72 hrs): 19%
1 linker (protein+linker) ([3]; 72 hrs): 43%
+(1) H2O ([3]; 72 hrs): 30%
+(2) H2O ([3]; 72 hrs): 8%
0 linker (unconjugated protein) ([3]; 168 hrs): 19%
1 linker (protein+linker) ([3]; 168 hrs): 43%
+(1) H2O ([3]; 168 hrs): 29%
+(2) H2O ([3]; 168 hrs): 8%
0 linker (unconjugated protein) ([3]; 336 hrs): 20%
1 linker (protein+linker) ([3]; 336 hrs): 43%
+(1) H2O ([3]; 336 hrs): 29%
+(2) H2O ([3]; 336 hrs (2 weeks)): 8%

B6: FGF21ΔH-K56R-K59-K69R-K122R: FGF21 lysine mutant, SEQ ID NO:19 (protein, listed as Homo sapiens)
chain: B1 chain with K55R, R58K
EC50 ([1]; 3T3-L1 adipocytes, 24 hrs): 0.9 nM
EC50 [2, 5]: 0.6 nM

B7: FGF21ΔH-Knull-P2: FGF21 lysine-null mutant, SEQ ID NO:22 (protein, listed as Homo sapiens)
chain: B1 chain with K55R
EC50 [2, 5]: 1.2 nM

B8: L4-FGF21ΔH-A129C: Linker-4 conjugated to FGF21ΔH-A129C protein (Table 4; Table 5 row L4) (conjugate, UniProt Q9NSA1 29-209, looked up, variant H1* A129C)
Fibroblast growth factor 21: B1 chain with R58K, R68K, R121K, A128C, P145L, L146P
modifications: Linker-4 attached
1 linker (protein+linker) ([3]; 0 hrs): 46%
+(1) H2O ([3]; 0 hrs): 28%
+(2) H2O ([3]; 0 hrs): 6%
0 linker (unconjugated protein) [3, 6]: 20%
0 linker (unconjugated protein) ([3]; 24 hrs): 20%
1 linker (protein+linker) ([3]; 24 hrs): 46%
+(1) H2O ([3]; 24 hrs): 27%
+(2) H2O ([3]; 24 hrs): 7%
0 linker (unconjugated protein) ([3]; 72 hrs): 21%
1 linker (protein+linker) ([3]; 72 hrs): 42%
+(1) H2O ([3]; 72 hrs): 30%
+(2) H2O ([3]; 72 hrs): 7%
0 linker (unconjugated protein) ([3]; 168 hrs): 21%
1 linker (protein+linker) ([3]; 168 hrs): 41%
+(1) H2O ([3]; 168 hrs): 32%
+(2) H2O ([3]; 168 hrs): 6%
0 linker (unconjugated protein) ([3]; 336 hrs): 22%
1 linker (protein+linker) ([3]; 336 hrs): 41%
+(1) H2O ([3]; 336 hrs): 31%
+(2) H2O ([3]; 336 hrs (2 weeks)): 6%

B9: FGF21ΔH-H125C: FGF21 cysteine mutant, SEQ ID NO:6 (protein, listed as Homo sapiens)
chain: B1 chain with R58K, R68K, R121K, H124C, P145L, L146P
EC50 [2, 5]: 1.2 nM

B10: FGF21ΔH-A129C: FGF21 cysteine mutant, SEQ ID NO:9 (protein, listed as Homo sapiens)
chain: B1 chain with R58K, R68K, R121K, A128C, P145L, L146P
EC50 ([2]; 3T3-L1 adipocytes, Taqman quantitative real-time PCR, read-out: Glut1 RNA expression EC50): 16 nM
Glut1 induction in 3T3-L1 adipocytes [2]: dose-dependent Glut1 induction
EC50 [2, 5]: 1.4 nM

B11: FGF21ΔH-K56-K59R-K69R-K122: FGF21 lysine mutant, SEQ ID NO:21 (protein, listed as Homo sapiens)
chain: B1 chain with K55R, R121K
EC50 ([1]; 3T3-L1 adipocytes, 24 hrs): 1.7 nM
EC50 [2, 5]: 2.6 nM

B12: FGF21ΔH-L86C: FGF21 cysteine mutant, SEQ ID NO:14 (protein, listed as Homo sapiens)
chain: B1 chain with R58K, R68K, L85C, R121K
EC50 ([1]; unconjugated protein, n in brackets): 62 nM

B13: FGF21ΔH-K56R-K59R-K69-K122R: FGF21 lysine mutant, SEQ ID NO:20 (protein, listed as Homo sapiens)
chain: B1 chain with K55R, R68K
EC50 ([1]; 3T3-L1 adipocytes, 24 hrs): 5.2 nM
EC50 [2, 5]: 1.3 nM

B14: FGF21ΔH-Knull-H1K: FGF21 lysine-null mutant with H1K, SEQ ID NO:23 (protein, listed as Homo sapiens)
chain: KPIPDSSPLLQFGGQVRQRYLYTDDAQQTEAHLEIREDGTVGGAADQSPESLLQLRALRPGVIQILGVRTSRFLCQRPDGALYGSLHFDPEACSFRELLLEDGYNVYQSEAHGLPLHLPGNRSPHRDPAPRGPARFLPLPGLPPALPEPPGILAPQPPDVGSSDPLSMVGPSQGRSPSYAS
IV half-life ([4]; iv): 16 h
SC bioavailability ([4]; sc): 51%
SC half-life ([4]; sc): 11 h
EC50 [2, 5]: 6.4 nM and 4.3 nM
